Data from publication PMC10014863, “Structural analysis of the housecleaning nucleoside triphosphate pyrophosphohydrolase MazG from Mycobacterium tuberculosis” (Frontiers in Microbiology, 2023).

Target: the molecule itself
Assay: SEC

B1: Mycobacterium tuberculosis MazG (Mtb-MazG), full-length wild type (enzyme)
chain: MIVVLVDPRRPTLVPVEAIEFLRGEVQYTEEMPVAVPWSLPAARSAHAGNDAPVLLSSDPNHPAVITRLAAGARLISAPDSQRGERLVDAVAMMDKLRTAGPWESEQTHDSLRRYLLEETYELLDAVRSGSVDQLREELGDLLLQVLFHARIAEDASQSPFTIDDVADTLMRKLGNRAPGVLAGESISLEDQLAQWEAAKASEKARKSVADDVHTGQPALALAQKVIQRAQKAGLPAHLIPDEITSVSVSADVDAENTLRTAVLDFIDRLRCAERAIAVARRGSNVAEQLDVTPLGVITEQEWLAHWPTAVNDSRGGSKKRKGMR
notes: also called WT MazG; full-length MazG
  stoichiometry N: 2
